Data on 4 molecules can be found in PMC6038944 (Biochemistry, 2018).

The target of series [1] is apo-transferrin (iron-free serotransferrin) (UniProt P02787). Kind of series: SPR. The settings on record: 150 mM NaCl, pH 7.4: 20 mM HEPES, pH 6.0: 20 mM PIPES.
Series [2] concerns the molecule itself.

Chain of apo-transferrin (iron-free serotransferrin) (P02787 whole entry): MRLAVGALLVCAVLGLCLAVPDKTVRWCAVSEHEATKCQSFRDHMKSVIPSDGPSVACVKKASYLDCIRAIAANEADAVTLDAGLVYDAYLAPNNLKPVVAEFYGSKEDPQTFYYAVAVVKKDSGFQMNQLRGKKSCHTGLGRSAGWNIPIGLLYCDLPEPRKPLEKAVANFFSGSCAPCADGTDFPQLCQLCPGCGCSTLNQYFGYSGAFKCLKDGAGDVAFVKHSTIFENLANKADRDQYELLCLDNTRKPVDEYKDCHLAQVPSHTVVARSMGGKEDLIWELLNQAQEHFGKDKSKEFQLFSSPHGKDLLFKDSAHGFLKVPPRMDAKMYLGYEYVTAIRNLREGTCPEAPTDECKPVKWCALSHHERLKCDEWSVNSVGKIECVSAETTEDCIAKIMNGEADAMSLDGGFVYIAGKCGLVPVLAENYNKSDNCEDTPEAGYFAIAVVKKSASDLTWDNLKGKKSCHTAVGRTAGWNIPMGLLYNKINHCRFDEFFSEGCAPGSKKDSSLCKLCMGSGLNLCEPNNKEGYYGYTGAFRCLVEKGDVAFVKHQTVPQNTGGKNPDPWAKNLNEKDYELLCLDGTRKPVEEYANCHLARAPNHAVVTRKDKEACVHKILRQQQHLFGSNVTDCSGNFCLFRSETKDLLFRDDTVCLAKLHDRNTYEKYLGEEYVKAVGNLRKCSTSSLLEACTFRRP

In series [1] (pH 6.0), “EGFP-TfR1 (full-length transferrin receptor 1, EGFP fusion)” displayed a ka1 of 1.01e+06 M⁻¹ s⁻¹, a ka2 of 3.01e+06 M⁻¹ s⁻¹ and a kd1 of 1.2 s⁻¹. In addition, in series [1] (pH 7.4), the ka1 amounted to 450000 M⁻¹ s⁻¹, the ka2 was determined as 19000 M⁻¹ s⁻¹ and the kd1 stood at 22000 s⁻¹.
In the case of “EGFP-TfR2 (full-length transferrin receptor 2, EGFP fusion)”, in series [1] (pH 6.0), the ka1 is 150000 M⁻¹ s⁻¹, the ka2 is 34000 M⁻¹ s⁻¹, the kd1 was found to be 1100 s⁻¹ and the kd2 stood at 643 s⁻¹. In series [1] (pH 7.4), this molecule had a ka1 of 66000 M⁻¹ s⁻¹, a ka2 of 6300 M⁻¹ s⁻¹, a kd1 of 44000 s⁻¹ and a kd2 of 8160 s⁻¹.
In series [1] (pH 6.0), “EGFP-TfR2-TfR1HD (TfR2 chimera carrying the TfR1 helical domain) helical domain swap: TfR2 637-801 replaced by TfR1 605-760” displayed a ka1 of 160000 M⁻¹ s⁻¹, a ka2 of 1.03e+06 M⁻¹ s⁻¹, a kd1 of 350 s⁻¹ and a kd2 of 4950 s⁻¹. For the same molecule, in series [1] (pH 7.4), the ka1 stood at 510000 M⁻¹ s⁻¹, the ka2 came out at 163000 M⁻¹ s⁻¹, the kd1 was found to be 2500 s⁻¹ and the kd2 amounted to 78300 s⁻¹.

B1: full-length EGFP-TfR2 (transferrin receptor-2) (receptor, human, UniProt Q9UP52 1-801, looked up)
chain: MERLWGLFQRAQQLSPRSSQTVYQRVEGPRKGHLEEEEEDGEEGAETLAHFCPMELRGPEPLGSRPRQPNLIPWAAAGRRAAPYLVLTALLIFTGAFLLGYVAFRGSCQACGDSVLVVSEDVNYEPDLDFHQGRLYWSDLQAMFLQFLGEGRLEDTIRQTSLRERVAGSAGMAALTQDIRAALSRQKLDHVWTDTHYVGLQFPDPAHPNTLHWVDEAGKVGEQLPLEDPDVYCPYSAIGNVTGELVYAHYGRPEDLQDLRARGVDPVGRLLLVRVGVISFAQKVTNAQDFGAQGVLIYPEPADFSQDPPKPSLSSQQAVYGHVHLGTGDPYTPGFPSFNQTQFPPVASSGLPSIPAQPISADIASRLLRKLKGPVAPQEWQGSLLGSPYHLGPGPRLRLVVNNHRTSTPINNIFGCIEGRSEPDHYVVIGAQRDAWGPGAAKSAVGTAILLELVRTFSSMVSNGFRPRRSLLFISWDGGDFGSVGSTEWLEGYLSVLHLKAVVYVSLDNAVLGDDKFHAKTSPLLTSLIESVLKQVDSPNHSGQTLYEQVVFTNPSWDAEVIRPLPMDSSAYSFTAFVGVPAVEFSFMEDDQAYPFLHTKEDTYENLHKVLQGRLPAVAQAVAQLAGQLLIRLSHDRLLPLDFGRYGDVVLRHIGNLNEFSGDLKARGLTLQWVYSARGDYIRAAEKLRQEIYSSEERDERLTRMYNVRIMRVEFYFLSQYVSPADSPFRHIFMGRGDHTLGALLDHLRLLRSNSSGTPGATSSTGFQESRFRRQLALLTWTLQGAANALSGDVWNIDNNF
For the molecule B1, in series [2], the “stoichiometry N” value is 2.

Usually stoichiometry N stands for a count of units in the complex or per binding partner.
